pIC50: −log10 of the molar value.
Tests used:
[1] = target: T1, serum-MBP-CRD (Rattus norvegicus, UniProt P19999); assay: Solid-phase binding assay, inhibition of 125I-[mannose30-BSA] binding to serum MBP-CRD; conditions: in the concentration range of SBA tested
T1 construct: Recombinant rat MBP-CRDs from serum and liver were expressed and purified; made in house; host or cells: bacteria (expression plasmid-bearing bacterial strains, gift of Dr. Kurt Drickamer)
Experimental: (§1) Glycoamidase A was from Seikagaku America, Inc. (Rockville, Md.). GlcNAc was purchased from Pfanstiehl Laboratories, Inc. (Waukegan, Ill.). 3-(N-acryloylamino)-propyl β-D-GlcNAc (GlcNAc-NAP) and GlcNAc-O-(CH2)3CH=CH2 were gifts from Dr. Shin-Ichiro Nishimura of Hokkaido University, Japan.
(§2) All steps were carried out at 4° C. Briefly, CRD (50 μl) was coated onto individual polystyrene wells (Immulon 4 Removawell Strips by Dynatech, from Fisher Scientific). […] Ligands and inhibitors were in 0.5% BSA in the above Tris buffer for binding and inhibition. […] The well contents were then removed, washed, and counted in a Packard Minaxi gamma counter.

[2] = target: T2, liver-MBP-CRD (Rattus norvegicus, UniProt P08661); assay: Solid-phase binding assay, inhibition of 125I-[mannose30-BSA] binding to liver MBP-CRD
T2 construct: Recombinant rat MBP-CRDs from serum and liver were expressed and purified; made in house; host or cells: bacteria (expression plasmid-bearing bacterial strains, gift of Dr. Kurt Drickamer)
T2 sequence (P08661 129-241 limits assumed): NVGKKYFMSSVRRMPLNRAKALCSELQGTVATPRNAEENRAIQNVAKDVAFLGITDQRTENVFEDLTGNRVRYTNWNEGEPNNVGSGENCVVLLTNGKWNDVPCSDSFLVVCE
Experimental: as §1, §2

soybean agglutinin [SBA]
inhibition of the serum-MBP-CRD (in words) [1]: no significant inhibition
pIC50 ([2]; concentration based on Man9 GlcNAc2, 4° C., 20 hr incubation, read-out: I50 for the liver-MBP-CRD): 4.88
I50 for the liver-MBP-CRD ([2]; expressed as mg/ml of SBA): 0.4 mg/mL

Reference: patent US5807943A, “Synthesis of glycopolymers” (Johns Hopkins University, priority 1997, dated 1998)
